Tests used:
[1] = target: human CCR5 expressed on DHFR-deficient CHO cells (CHO-CCR5) (human) (UniProt P51681)
[2] = target: CCR5 endogenously expressed on human blood-derived monocytes, monocyte-derived macrophages (MDMs) and T cell blasts (human (endogenous in blood monocytes, MDMs and T cell blasts)) (UniProt P51681)
[3] = target: CCR5 endogenously expressed on human blood-derived monocytes, monocyte-derived macrophages (MDMs) and T cell blasts (human (endogenous in blood monocytes, MDMs and T cell blasts)) (UniProt P51681); remark: listed apart in the source

CCL5, sequence (P13501 24-91): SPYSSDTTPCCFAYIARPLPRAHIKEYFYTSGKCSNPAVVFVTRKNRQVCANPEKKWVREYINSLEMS

CCR5 down-modulation: reduction of the specific binding of each anti-CCR5 mAb to the surface of CHO-CCR5 cells after 1 h at 37°C with 100 nM CCL5, flow cytometry [1] | CCR5 down-modulation on monocytes after overnight culture with 100 nM analog: reduction of the surface binding signal of MC5, 2D7 and CTC5, flow cytometry [2] | CCR5 down-modulation on MDMs after overnight exposure to 100 nM ligand, detected with CTC5, flow cytometry [3] | Substance
50% | – | – | CCL5 (from UniProt P13501 24-91) (ligand)
– | 50% | > 50% | PSC-RANTES: Nα(n-nonanoyl)-des-Ser(1)-[L-thioprolyl(2), L-cyclohexylglycyl(3)]-RANTES(4-68) (from UniProt P13501 27-91) (ligand)
– | 50% | > 50% | amino-oxypentane (AOP)-RANTES (from UniProt P13501 24-91) (ligand)

— paper PMC4560160
